Experimental data: paper PMC2728497

Biological target: Aβ1-40wt (human)
Experiment: SEC

- stoichiometry N: 2
Substance: Aβ1-40wt (peptide)
